Values quoted from earlier work as cited in patent US20090145201A1, “METHODS AND APPARATUSES FOR REDUCING EFFECTS OF MOLECULE ADSORPTION WITHIN MICROFLUIDIC CHANNELS” (EKSIGENT TECHNOLOGIES, LLC, priority 2005, published 2009).

Conditions: source: Cantor and Schimmel 1980, Biophysical Chemistry Part II

In order of falling “Diffusion Coefficient” value:
1. NCC(=O)O [glycine, reference compound]  9.33e−6 cm^2 · s^−1
2. OC[C@H]1O[C@@](CO)(O[C@H]2O[C@H](CO)[C@@H](O)[C@H](O)[C@H]2O)[C@@H](O)[C@@H]1O [sucrose, reference compound]  4.59e−6 cm^2 · s^−1
3. lysozyme  1.04e−6 cm^2 · s^−1
4. Bovine serum albumin  6.01e−7 cm^2 · s^−1
5. Tropomyosin  2.2e−7 cm^2 · s^−1
6. Fibrinogen  1.98e−7 cm^2 · s^−1
7. Myosin  1.10e−7 cm^2 · s^−1

In the case of [Cl-].[Na+] [NaCl, reference compound], the “Diffusion Coefficient” value is listed as ~1.5e−5 cm^2 · s^−1.
